In publication PMC4104026:

Biological target: Hfq (His6-tagged) (UniProt P0A6X3 1-102)
Experiment: EMSA; affinity comparable to GcvB; tRNA competitor; Single-RNA EMSA: 10 mM Tris-HCl pH 7.4, 0.1 mM EDTA, 10 mM NH4Cl, 10 mM NaCl, 10 mM KCl, 1 mg/ml tRNA, 4% glycerol, RT 5 min; ~40 fmol RNA (legend); Methods say
Details: protein: recombinant; tags: His6; chain copies: 6; label: 32P; 3' terminator hairpin

Hfq (His6-tagged), sequence (P0A6X3 whole entry): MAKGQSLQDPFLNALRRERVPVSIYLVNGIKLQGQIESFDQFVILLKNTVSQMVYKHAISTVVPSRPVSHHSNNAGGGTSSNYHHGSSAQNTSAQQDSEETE

B1: AgvB (EcOnc01) sRNA (structured_RNA)
RNA: CGAUAACACAACAAUAUCAGUAUCUCAUGCUAUUGCCCGAACCCAUUCGGGCAUUUUU
  binding result: binds
